From patent US20070232789A1 (UNIVERSITY OF MARYLAND BALTIMORE, published 2007) come the findings set out here.

A value given as a limit tells only on which side of the number the result lay.

Test [1] addresses T1, low-density lipoprotein receptor-related protein (LRP), purified (human, UniProt Q07954 20-4544).
T1 construct: mature; also called low density lipoprotein receptor-related protein/α2-macroglobulin receptor; LRP receptor
As to the kind of experiment: heterologous displacement of ^125I-fVIII (1 nM) from immobilised LRP; HCh as unlabeled competitor. As to the method:
(§1) Solid-phase binding assays. […] Microtiter wells were coated with purified LRP or BSA (3 μg/ml) in 50 mM Tris, 0.15 M NaCl, pH 8.0, for 16 h and then blocked with 3% BSA in TBS. […] The radioactivity bound to the wells was counted using a γ-counter (Pharmacia). Affinity constants were derived from homologous and heterologous displacement data using the computer program LIGAND (Munson, P T and Rodbard, D. Anal. Biochem. 107:220-239 (1980)).

Test [2] has as its target LRP on mouse embryonic fibroblasts (MEF cells) (mouse, UniProt Q91ZX7 20-4545). As to the kind of experiment: cell-based or functional assay.
In test [3] the target is T1, low-density lipoprotein …. As to the kind of experiment: homologous displacement of ^125I-A2 (5 nM) by unlabeled A2 on LRP-coated wells, LIGAND fit.
Test [4] deals with T1, low-density lipoprotein …. Description: heterologous displacement of ^125I-fVIII (1 nM) from immobilised LRP; isolated A2 domain as unlabeled competitor. As to the method: as §1

T1 sequence (Q07954 20-4544, form in doubt): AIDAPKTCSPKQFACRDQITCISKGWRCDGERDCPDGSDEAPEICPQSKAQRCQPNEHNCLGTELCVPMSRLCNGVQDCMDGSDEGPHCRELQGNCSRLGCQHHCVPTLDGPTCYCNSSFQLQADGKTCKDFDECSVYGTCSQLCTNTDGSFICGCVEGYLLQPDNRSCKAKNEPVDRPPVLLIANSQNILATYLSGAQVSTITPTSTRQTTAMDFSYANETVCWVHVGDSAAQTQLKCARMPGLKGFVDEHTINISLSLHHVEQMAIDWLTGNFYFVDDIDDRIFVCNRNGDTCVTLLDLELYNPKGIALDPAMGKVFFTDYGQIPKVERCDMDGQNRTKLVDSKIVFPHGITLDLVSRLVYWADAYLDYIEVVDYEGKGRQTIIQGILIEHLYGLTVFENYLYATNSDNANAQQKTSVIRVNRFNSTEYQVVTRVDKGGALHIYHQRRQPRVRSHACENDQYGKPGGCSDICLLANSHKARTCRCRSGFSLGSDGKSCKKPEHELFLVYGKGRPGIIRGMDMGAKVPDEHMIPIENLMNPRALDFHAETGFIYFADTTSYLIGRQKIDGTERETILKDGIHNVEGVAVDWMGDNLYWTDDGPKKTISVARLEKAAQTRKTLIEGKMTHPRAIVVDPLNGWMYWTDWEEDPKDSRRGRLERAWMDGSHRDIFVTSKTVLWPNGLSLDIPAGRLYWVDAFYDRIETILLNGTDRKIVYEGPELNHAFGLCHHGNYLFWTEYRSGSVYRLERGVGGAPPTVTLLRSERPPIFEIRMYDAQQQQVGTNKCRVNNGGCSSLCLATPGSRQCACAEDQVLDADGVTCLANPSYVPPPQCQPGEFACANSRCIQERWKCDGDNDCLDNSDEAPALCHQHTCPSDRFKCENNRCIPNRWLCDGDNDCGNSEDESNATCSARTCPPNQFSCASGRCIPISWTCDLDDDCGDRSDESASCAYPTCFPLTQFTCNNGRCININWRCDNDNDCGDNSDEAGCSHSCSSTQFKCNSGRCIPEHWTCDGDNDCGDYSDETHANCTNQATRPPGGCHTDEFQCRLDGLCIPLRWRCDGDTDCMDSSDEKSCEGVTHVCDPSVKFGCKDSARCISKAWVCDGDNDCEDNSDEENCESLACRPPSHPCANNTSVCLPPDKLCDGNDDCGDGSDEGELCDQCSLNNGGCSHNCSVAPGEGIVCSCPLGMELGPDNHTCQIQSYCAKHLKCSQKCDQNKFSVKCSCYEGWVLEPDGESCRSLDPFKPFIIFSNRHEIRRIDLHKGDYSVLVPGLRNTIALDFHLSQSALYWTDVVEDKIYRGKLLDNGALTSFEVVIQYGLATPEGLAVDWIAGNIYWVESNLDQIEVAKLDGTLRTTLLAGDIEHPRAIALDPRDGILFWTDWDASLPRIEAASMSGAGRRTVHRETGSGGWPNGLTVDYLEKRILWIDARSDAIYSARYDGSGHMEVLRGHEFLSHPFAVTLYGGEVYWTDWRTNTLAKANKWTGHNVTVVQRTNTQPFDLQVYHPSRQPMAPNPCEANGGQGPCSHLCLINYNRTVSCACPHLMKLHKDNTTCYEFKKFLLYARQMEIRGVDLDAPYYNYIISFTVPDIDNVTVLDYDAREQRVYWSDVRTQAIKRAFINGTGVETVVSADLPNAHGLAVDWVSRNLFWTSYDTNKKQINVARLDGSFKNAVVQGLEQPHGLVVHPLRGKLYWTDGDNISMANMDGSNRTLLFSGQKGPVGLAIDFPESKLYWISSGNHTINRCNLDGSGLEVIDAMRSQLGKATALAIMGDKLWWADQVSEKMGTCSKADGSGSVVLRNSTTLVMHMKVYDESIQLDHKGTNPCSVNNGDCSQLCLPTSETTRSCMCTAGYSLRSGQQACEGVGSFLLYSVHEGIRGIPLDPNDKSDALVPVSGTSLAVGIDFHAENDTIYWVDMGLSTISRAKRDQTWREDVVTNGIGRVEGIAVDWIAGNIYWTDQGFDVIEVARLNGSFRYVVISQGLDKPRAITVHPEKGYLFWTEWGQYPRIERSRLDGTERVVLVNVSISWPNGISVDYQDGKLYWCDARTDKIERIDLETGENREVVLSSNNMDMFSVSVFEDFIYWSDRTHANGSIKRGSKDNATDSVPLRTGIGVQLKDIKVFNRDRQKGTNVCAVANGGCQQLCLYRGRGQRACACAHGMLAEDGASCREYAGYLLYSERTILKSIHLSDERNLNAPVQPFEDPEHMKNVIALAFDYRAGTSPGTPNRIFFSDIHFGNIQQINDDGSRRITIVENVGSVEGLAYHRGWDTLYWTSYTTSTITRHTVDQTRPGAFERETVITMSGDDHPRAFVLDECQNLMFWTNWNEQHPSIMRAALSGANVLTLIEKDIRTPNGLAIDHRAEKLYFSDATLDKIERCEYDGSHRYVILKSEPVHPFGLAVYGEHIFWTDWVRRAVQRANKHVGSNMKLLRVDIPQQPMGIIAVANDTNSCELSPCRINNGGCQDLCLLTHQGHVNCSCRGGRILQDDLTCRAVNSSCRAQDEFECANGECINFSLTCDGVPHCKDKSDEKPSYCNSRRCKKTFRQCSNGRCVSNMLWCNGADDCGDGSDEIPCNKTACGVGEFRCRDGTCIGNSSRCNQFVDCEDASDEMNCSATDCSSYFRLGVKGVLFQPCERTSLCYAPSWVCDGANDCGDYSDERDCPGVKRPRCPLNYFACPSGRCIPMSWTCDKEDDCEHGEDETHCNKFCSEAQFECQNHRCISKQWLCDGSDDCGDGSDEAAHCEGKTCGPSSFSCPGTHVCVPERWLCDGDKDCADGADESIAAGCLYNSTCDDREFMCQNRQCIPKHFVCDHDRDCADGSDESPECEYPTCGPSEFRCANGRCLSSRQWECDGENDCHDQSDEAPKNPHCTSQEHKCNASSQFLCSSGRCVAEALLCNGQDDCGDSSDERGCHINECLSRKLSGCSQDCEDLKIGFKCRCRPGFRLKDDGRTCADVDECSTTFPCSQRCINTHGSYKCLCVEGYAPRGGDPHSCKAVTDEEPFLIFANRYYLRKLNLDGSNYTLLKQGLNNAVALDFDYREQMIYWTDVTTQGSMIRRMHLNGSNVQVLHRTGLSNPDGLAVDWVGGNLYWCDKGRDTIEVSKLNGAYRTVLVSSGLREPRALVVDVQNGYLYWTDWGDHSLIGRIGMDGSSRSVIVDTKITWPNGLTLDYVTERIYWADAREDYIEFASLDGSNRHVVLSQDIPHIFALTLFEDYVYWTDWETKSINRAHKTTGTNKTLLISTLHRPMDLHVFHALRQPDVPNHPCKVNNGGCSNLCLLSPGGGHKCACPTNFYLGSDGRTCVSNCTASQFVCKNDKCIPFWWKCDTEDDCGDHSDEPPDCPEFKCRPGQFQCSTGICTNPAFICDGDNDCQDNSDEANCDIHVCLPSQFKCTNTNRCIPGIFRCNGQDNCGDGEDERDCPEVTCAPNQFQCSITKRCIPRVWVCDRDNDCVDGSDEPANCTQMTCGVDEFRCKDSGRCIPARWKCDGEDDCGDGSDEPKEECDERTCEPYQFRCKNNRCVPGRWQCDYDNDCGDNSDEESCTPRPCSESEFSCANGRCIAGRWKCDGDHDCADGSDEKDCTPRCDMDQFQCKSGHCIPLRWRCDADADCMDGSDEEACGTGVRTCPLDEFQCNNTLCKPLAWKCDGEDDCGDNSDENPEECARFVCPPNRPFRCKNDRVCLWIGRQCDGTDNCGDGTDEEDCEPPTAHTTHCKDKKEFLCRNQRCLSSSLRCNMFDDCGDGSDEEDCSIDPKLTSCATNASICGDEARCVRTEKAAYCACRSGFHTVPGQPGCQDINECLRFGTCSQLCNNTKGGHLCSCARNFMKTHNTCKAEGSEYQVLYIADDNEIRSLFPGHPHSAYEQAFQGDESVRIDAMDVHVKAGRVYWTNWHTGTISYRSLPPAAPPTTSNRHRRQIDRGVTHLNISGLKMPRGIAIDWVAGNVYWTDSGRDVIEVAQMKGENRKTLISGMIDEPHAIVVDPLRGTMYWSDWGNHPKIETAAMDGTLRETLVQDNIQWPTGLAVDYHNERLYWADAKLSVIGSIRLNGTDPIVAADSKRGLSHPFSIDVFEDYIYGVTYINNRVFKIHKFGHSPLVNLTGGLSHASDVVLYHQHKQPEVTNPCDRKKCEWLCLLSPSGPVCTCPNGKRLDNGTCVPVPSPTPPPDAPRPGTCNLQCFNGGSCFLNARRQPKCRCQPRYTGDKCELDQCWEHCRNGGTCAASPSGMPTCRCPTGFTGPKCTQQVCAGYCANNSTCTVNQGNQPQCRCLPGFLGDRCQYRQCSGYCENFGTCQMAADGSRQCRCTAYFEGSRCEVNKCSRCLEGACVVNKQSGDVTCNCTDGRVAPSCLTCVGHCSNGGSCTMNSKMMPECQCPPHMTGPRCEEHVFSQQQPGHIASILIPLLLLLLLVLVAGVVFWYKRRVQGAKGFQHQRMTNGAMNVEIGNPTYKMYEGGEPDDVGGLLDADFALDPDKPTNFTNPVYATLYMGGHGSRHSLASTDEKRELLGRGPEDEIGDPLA

B1: heavy chain of factor VIII (HCh) (other)
chain: ATRRYYLGAVELSWDYMQSDLGELPVDARFPPRVPKSFPFNTSVVYKKTLFVEFTDHLFNIAKPRPPWMGLLGPTIQAEVYDTVVITLKNMASHPVSLHAVGVSYWKASEGAEYDDQTSQREKEDDKVFPGGSHTYVWQVLKENGPMASDPLCLTYSYLSHVDLVKDLNSGLIGALLVCREGSLAKEKTQTLHKFILLFAVFDEGKSWHSETKNSLMQDRDAASARAWPKMHTVNGYVNRSLPGLIGCHRKSVYWHVIGMGTTPEVHSIFLEGHTFLVRNHRQASLEISPITFLTAQTLLMDLGQFLLFCHISSHQHDGMEAYVKVDSCPEEPQLRMKNNEEAEDYDDDLTDSEMDVVRFDDDNSPSFIQIRSVAKKHPKTWVHYIAAEEEDWDYAPLVLAPDDRSYKSQYLNNGPQRIGRKYKKVRFMAYTDETFKTREAIQHESGILGPLLYGEVGDTLLIIFKNQASRPYNIYPHGITDVRPLYSRRLPKGVKHLKDFPILPGEIFKYKWTVTVEDGPTKSDPRCLTRYYSSFVNMERDLASGLIGPLLICYKESVDQRGNQIMSDKRNVILFSVFDENRSWYLTENIQRFLPNPAGVQLEDPEFQASNIMHSINGYVFDSLQLSVCLHEVAYWYILSIGAQTDFLSVFFSGYTFKHKMVYEDTLTLFPFSGETVFMSMENPGLWILGCHNSDFRNRGMTALLKVSSCDKNTGDYYEDSYEDISAYLLSKNNAIEPRSFSQNSRHRSTRQKQFNATTIPENDIEKTDPWFAHRTPMPKIQNVSSSDLLMLLRQSPTPHGLSLSDLQEAKYETFSDDPSPGAIDSNNSLSEMTHFRPQLHHSGDMVFTPESGLQLRLNEKLGTTAATELKKLDFKVSSTSNNLISTIPSDNLAAGTDNTSSLGPPSMPVHYDSQLDTTLFGKKSSPLTESGGPLSLSEENNDSKLLESGLMNSQESSWGKNVSSTESGRLFKGKRAHGPALLTKDNALFKVSISLLKTNKTSNNSATNRKTHIDGPSLLIENSPSVWQNILESDTEFKKVTPLIHDRMLMDKNATALRLNHMSNKTTSSKNMEMVQQKKEGPIPPDAQNPDMSFFKMLFLPESARWIQRTHGKNSLNSGQGPSPKQLVSLGPEKSVEGQNFLSEKNKVVVGKGEFTKDVGLKEMVFPSSRNLFLTNLDNLHENNTHNQEKKIQEEIEKKETLIQENVVLPQIHTVTGTKNFMKNLFLLSTRQNVEGSYDGAYAPVLQDFRSLNDSTNRTKKHTAHFSKKGEEENLEGLGNQTKQIVEKYACTTRISPNTSQQNFVTQRSKRALKQFRLPLEETELEKRIIVDDTSTQWSKNMKHLTPSTLTQIDYNEKEKGAITQSPLSDCLTRSHSIPQANRSPLPIAKVSSFPSIRPIYLTRVLFQDNSSHLPAASYRKKDSGVQESSHFLQGAKKNNLSLAILTLEMTGDQREVGSLGTSATNSVTYKKVENTVLPKPDLPKTSGKVELLPKVHIYQKDLFPTETSNGSPGHLDLVEGSLLQGTEGAIKWNEANRPGKVPFLRVATESSAKTPSKLLDPLAWDNHYGTQIPKEEWKSQEKSPEKTAFKKKDTILSLNACESNHAIAAINEGQNKPEIEVTWAKQGRTERLCSQNPPVLKRHQR
notes: Prepared from plasma-derived fVIII
As usually defined, the Ki is the equilibrium dissociation constant of an inhibitor or competing ligand from its target. Low values mean tighter binding, high ones weaker binding. B1: the Ki in test [1] was found to be 120 nM.

B2: A2 subunit of factor VIII, plasma-derived (from thrombin-activated fVIII) (other)
chain: SVAKKHPKTWVHYIAAEEEDWDYAPLVLAPDDRSYKSQYLNNGPQRIGRKYKKVRFMAYTDETFKTREAIQHESGILGPLLYGEVGDTLLIIFKNQASRPYNIYPHGITDVRPLYSRRLPKGVKHLKDFPILPGEIFKYKWTVTVEDGPTKSDPRCLTRYYSSFVNMERDLASGLIGPLLICYKESVDQRGNQIMSDKRNVILFSVFDENRSWYLTENIQRFLPNPAGVQLEDPEFQASNIMHSINGYVFDSLQLSVCLHEVAYWYILSIGAQTDFLSVFFSGYTFKHKMVYEDTLTLFPFSGETVFMSMENPGLWILGCHNSDFRNRGMTALLKVSSCDKNTGDYYEDSYEDISAYLLSKNNAIEPR
notes: Radio-iodinated where used as tracer; also called A2 domain; plasma-derived A2
Usually Kd stands for the concentration at which binding is half-saturated. Read a low Kd as tighter binding. Consider B2, for which, in test [2], the “inhibition of degradation of ^125I-fVIII/vWf complex by MEF cells by a 1000-fold excess of A2” value is above 60% and the “inhibition of internalization of ^125I-fVIII/vWf complex by MEF cells by a 1000-fold excess of A2” value was above 70%. This molecule gave a Kd in test [3] of 130 nM. In test [4], this molecule had an inhibition constant Ki of 132 nM.
